The source of these data is article PMC10786891, “Massively parallel profiling of RNA-targeting CRISPR-Cas13d”.

The chains are these.
T1: EsCas13d, nuclease-dead (Eubacterium siraeum, UniProt B0MS50, R295A;H300A;R849A;H854A)
T1 sequence: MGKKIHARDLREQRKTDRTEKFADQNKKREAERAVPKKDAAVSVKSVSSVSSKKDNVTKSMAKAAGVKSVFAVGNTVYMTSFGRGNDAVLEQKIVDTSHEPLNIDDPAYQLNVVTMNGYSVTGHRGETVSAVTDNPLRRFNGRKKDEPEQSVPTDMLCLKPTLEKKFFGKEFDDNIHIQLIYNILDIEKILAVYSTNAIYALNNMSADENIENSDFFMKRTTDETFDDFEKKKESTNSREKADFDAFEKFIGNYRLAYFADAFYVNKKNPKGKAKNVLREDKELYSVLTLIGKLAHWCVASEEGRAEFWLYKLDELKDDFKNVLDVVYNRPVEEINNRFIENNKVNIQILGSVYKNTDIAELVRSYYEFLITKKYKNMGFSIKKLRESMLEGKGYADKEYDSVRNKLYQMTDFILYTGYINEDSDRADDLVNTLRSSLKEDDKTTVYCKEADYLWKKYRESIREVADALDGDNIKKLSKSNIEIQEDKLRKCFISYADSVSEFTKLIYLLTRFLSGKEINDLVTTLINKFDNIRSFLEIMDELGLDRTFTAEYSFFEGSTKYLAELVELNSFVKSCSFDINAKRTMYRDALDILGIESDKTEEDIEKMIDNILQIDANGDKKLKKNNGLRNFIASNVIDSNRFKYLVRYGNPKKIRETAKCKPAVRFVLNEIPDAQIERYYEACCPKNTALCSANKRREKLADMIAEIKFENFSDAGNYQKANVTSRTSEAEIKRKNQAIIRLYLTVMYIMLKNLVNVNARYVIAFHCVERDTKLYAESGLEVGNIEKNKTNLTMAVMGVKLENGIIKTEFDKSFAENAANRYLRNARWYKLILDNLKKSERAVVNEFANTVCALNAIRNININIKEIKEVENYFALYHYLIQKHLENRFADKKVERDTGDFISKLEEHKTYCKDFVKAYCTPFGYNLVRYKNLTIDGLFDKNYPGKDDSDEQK

B1: target 1 insG 3' of 3,insA 3' of 2 (mixed)
RNA 1: CACCCGUGCAAAAAUGCAGGGGUCUAAAACUGAGCGGAUAACCUCUCUAUGG
RNA 2: GGGAAUGGAUCCACAUCUACGAAUUCGUACCAUAGAGAGGUUAUCCGCUGCAACCGAGAUCGGAAGAGCACACGU
B2: target 1 insC 3' of 9,insU 3' of 6 (mixed)
RNA 1: CACCCGUGCAAAAAUGCAGGGGUCUAAAACUGAGCGGAUAACCUCUCUAUGG
RNA 2: GGGAAUGGAUCCACAUCUACGAAUUCGUACCAUAGAGAGGUUACUCCUGCUCACCGAGAUCGGAAGAGCACACGU
B3: target 1 C2U,C4U (mixed)
RNA 1: CACCCGUGCAAAAAUGCAGGGGUCUAAAACUGAGCGGAUAACCUCUCUAUGG
RNA 2: GGGAAUGGAUCCACAUCUACGAAUUCGUACCAUAGAGAGGUUAUCCGUUUACCGAGAUCGGAAGAGCACACGU
B4: target 3 insA 3' of 22,insG 3' of 2 (mixed)
RNA 1: CACCCGUGCAAAAUUGCAGGGGUCUAAAACGACCUGAAUAUUUCAGAUCAAA
RNA 2: GGGAAUGGAUCCACAUCUACGAAUUCGUUUAUUGAUCUGAAAUAUUCAGGUGCUGCAGAUCGGAAGAGCACACGU
B5: target 3 insG 3' of 7,insU 3' of 5 (mixed)
RNA 1: CACCCGUGCAAAAUUGCAGGGGUCUAAAACGACCUGAAUAUUUCAGAUCAAA
RNA 2: GGGAAUGGAUCCACAUCUACGAAUUCGUUUUUGAUCUGAAAUAUUGCAUGGUCUGCAGAUCGGAAGAGCACACGU
B6: target 3 insU 3' of 3 (mixed)
RNA 1: CACCCGUGCAAAAUUGCAGGGGUCUAAAACGACCUGAAUAUUUCAGAUCAAA
RNA 2: GGGAAUGGAUCCACAUCUACGAAUUCGUUUUUGAUCUGAAAUAUUCAGGUUCUGCAGAUCGGAAGAGCACACGU
B7: target 3 insC 3' of 22,insC 3' of 5 (mixed)
RNA 1: CACCCGUGCAAAAUUGCAGGGGUCUAAAACGACCUGAAUAUUUCAGAUCAAA
RNA 2: GGGAAUGGAUCCACAUCUACGAAUUCGUUUCUUGAUCUGAAAUAUUCACGGUCUGCAGAUCGGAAGAGCACACGU
B8: target 3 A13G (mixed)
RNA 1: CACCCGUGCAAAAUUGCAGGGGUCUAAAACGACCUGAAUAUUUCAGAUCAAA
RNA 2: GGGAAUGGAUCCACAUCUACGAAUUCGUUUUUGAUCUGGAAUAUUCAGGUCUGCAGAUCGGAAGAGCACACGU
B9: target 3 U21A,U22C (mixed)
RNA 1: CACCCGUGCAAAAUUGCAGGGGUCUAAAACGACCUGAAUAUUUCAGAUCAAA
RNA 2: GGGAAUGGAUCCACAUCUACGAAUUCGUUCAUGAUCUGAAAUAUUCAGGUCUGCAGAUCGGAAGAGCACACGU
B10: target 3 A5G,C6A (mixed)
RNA 1: CACCCGUGCAAAAUUGCAGGGGUCUAAAACGACCUGAAUAUUUCAGAUCAAA
RNA 2: GGGAAUGGAUCCACAUCUACGAAUUCGUUUUUGAUCUGAAAUAUUAGGGUCUGCAGAUCGGAAGAGCACACGU
B11: target 3 insU 3' of 13,insU 3' of 3 (mixed)
RNA 1: CACCCGUGCAAAAUUGCAGGGGUCUAAAACGACCUGAAUAUUUCAGAUCAAA
RNA 2: GGGAAUGGAUCCACAUCUACGAAUUCGUUUUUGAUCUGAUAAUAUUCAGGUUCUGCAGAUCGGAAGAGCACACGU
B12: target 3 G4U,A9G (mixed)
RNA 1: CACCCGUGCAAAAUUGCAGGGGUCUAAAACGACCUGAAUAUUUCAGAUCAAA
RNA 2: GGGAAUGGAUCCACAUCUACGAAUUCGUUUUUGAUCUGAAAUGUUCAUGUCUGCAGAUCGGAAGAGCACACGU
B13: target 3 insG 3' of 9,insA 3' of 6 (mixed)
RNA 1: CACCCGUGCAAAAUUGCAGGGGUCUAAAACGACCUGAAUAUUUCAGAUCAAA
RNA 2: GGGAAUGGAUCCACAUCUACGAAUUCGUUUUUGAUCUGAAAUAGUUCAAGGUCUGCAGAUCGGAAGAGCACACGU
B14: target 3 C6U,U7G (mixed)
RNA 1: CACCCGUGCAAAAUUGCAGGGGUCUAAAACGACCUGAAUAUUUCAGAUCAAA
RNA 2: GGGAAUGGAUCCACAUCUACGAAUUCGUUUUUGAUCUGAAAUAUGUAGGUCUGCAGAUCGGAAGAGCACACGU
B15: target 3 insU 3' of 11,insG 3' of 2 (mixed)
RNA 1: CACCCGUGCAAAAUUGCAGGGGUCUAAAACGACCUGAAUAUUUCAGAUCAAA
RNA 2: GGGAAUGGAUCCACAUCUACGAAUUCGUUUUUGAUCUGAAAUUAUUCAGGUGCUGCAGAUCGGAAGAGCACACGU
B16: target 3 U2G (mixed)
RNA 1: CACCCGUGCAAAAUUGCAGGGGUCUAAAACGACCUGAAUAUUUCAGAUCAAA
RNA 2: GGGAAUGGAUCCACAUCUACGAAUUCGUUUUUGAUCUGAAAUAUUCAGGGCUGCAGAUCGGAAGAGCACACGU
B17: target 3 G4A,A5U (mixed)
RNA 1: CACCCGUGCAAAAUUGCAGGGGUCUAAAACGACCUGAAUAUUUCAGAUCAAA
RNA 2: GGGAAUGGAUCCACAUCUACGAAUUCGUUUUUGAUCUGAAAUAUUCUAGUCUGCAGAUCGGAAGAGCACACGU
B18: target 3 insG 3' of 22,insG 3' of 2 (mixed)
RNA 1: CACCCGUGCAAAAUUGCAGGGGUCUAAAACGACCUGAAUAUUUCAGAUCAAA
RNA 2: GGGAAUGGAUCCACAUCUACGAAUUCGUUUGUUGAUCUGAAAUAUUCAGGUGCUGCAGAUCGGAAGAGCACACGU
B19: target 3 insU 3' of 3,insU 3' of 3 (mixed)
RNA 1: CACCCGUGCAAAAUUGCAGGGGUCUAAAACGACCUGAAUAUUUCAGAUCAAA
RNA 2: GGGAAUGGAUCCACAUCUACGAAUUCGUUUUUGAUCUGAAAUAUUCAGGUUUCUGCAGAUCGGAAGAGCACACGU
B20: target 3 insC 3' of 11,insU 3' of 3 (mixed)
RNA 1: CACCCGUGCAAAAUUGCAGGGGUCUAAAACGACCUGAAUAUUUCAGAUCAAA
RNA 2: GGGAAUGGAUCCACAUCUACGAAUUCGUUUUUGAUCUGAAACUAUUCAGGUUCUGCAGAUCGGAAGAGCACACGU
B21: target 3 U2G,A9U (mixed)
RNA 1: CACCCGUGCAAAAUUGCAGGGGUCUAAAACGACCUGAAUAUUUCAGAUCAAA
RNA 2: GGGAAUGGAUCCACAUCUACGAAUUCGUUUUUGAUCUGAAAUUUUCAGGGCUGCAGAUCGGAAGAGCACACGU
B22: target 3 insG 3' of 8,insU 3' of 3 (mixed)
RNA 1: CACCCGUGCAAAAUUGCAGGGGUCUAAAACGACCUGAAUAUUUCAGAUCAAA
RNA 2: GGGAAUGGAUCCACAUCUACGAAUUCGUUUUUGAUCUGAAAUAUGUCAGGUUCUGCAGAUCGGAAGAGCACACGU
B23: target 3 C6U,U8A (mixed)
RNA 1: CACCCGUGCAAAAUUGCAGGGGUCUAAAACGACCUGAAUAUUUCAGAUCAAA
RNA 2: GGGAAUGGAUCCACAUCUACGAAUUCGUUUUUGAUCUGAAAUAAUUAGGUCUGCAGAUCGGAAGAGCACACGU
B24: target 3 A5G,U22C (mixed)
RNA 1: CACCCGUGCAAAAUUGCAGGGGUCUAAAACGACCUGAAUAUUUCAGAUCAAA
RNA 2: GGGAAUGGAUCCACAUCUACGAAUUCGUUCUUGAUCUGAAAUAUUCGGGUCUGCAGAUCGGAAGAGCACACGU
B25: target 3 insA 3' of 10,insA 3' of 8 (mixed)
RNA 1: CACCCGUGCAAAAUUGCAGGGGUCUAAAACGACCUGAAUAUUUCAGAUCAAA
RNA 2: GGGAAUGGAUCCACAUCUACGAAUUCGUUUUUGAUCUGAAAUAAUAUCAGGUCUGCAGAUCGGAAGAGCACACGU
B26: target 3 U2C,G4U (mixed)
RNA 1: CACCCGUGCAAAAUUGCAGGGGUCUAAAACGACCUGAAUAUUUCAGAUCAAA
RNA 2: GGGAAUGGAUCCACAUCUACGAAUUCGUUUUUGAUCUGAAAUAUUCAUGCCUGCAGAUCGGAAGAGCACACGU
B27: target 3 insC 3' of 21,insU 3' of 4 (mixed)
RNA 1: CACCCGUGCAAAAUUGCAGGGGUCUAAAACGACCUGAAUAUUUCAGAUCAAA
RNA 2: GGGAAUGGAUCCACAUCUACGAAUUCGUUUUCUGAUCUGAAAUAUUCAGUGUCUGCAGAUCGGAAGAGCACACGU

This series addresses T1, EsCas13d, nuclease-dead. Put plainly: crRNA (strand 1, pre-loaded); Mg2+; 40 mM Tris-HCl pH 7.5, 150 mM NaCl, 6 mM MgCl2, 1 mM DTT, 0.1% Tween-20, 0.2 mg/ml BSA; 25 C; 10 min per concentration, then washed. Particulars: tags: His6-TwinStrep-SUMO cleaved; N-terminal SNAP kept (SNAP-Surface 488); label: 3' end held by stalled T7 RNA polymerase.
As for B1, the Kd (as a rule, a measure of binding affinity in units of concentration) amounted to 6.5 ± 0.4 nM.

B2: binding was put at a Kd of 16.6 ± 0.9 nM.

B3: the dissociation constant Kd amounted to 58 ± 17 nM.

Consider B4, for which the equilibrium dissociation constant (Kd) was found to be 32.9 ± 4.15 nM.

Molecule B5 returned an equilibrium dissociation constant (Kd) of 19.9 ± 2.2 nM.

The molecule B6 displayed a dissociation constant (Kd) of 29.2 ± 3.4 nM.

B7 yielded a Kd of 32 ± 4.5 nM.

In turn, B8 showed a Kd of 69 ± 20 nM.

Regarding B9, the Kd turned out to be 37.3 ± 5.65 nM.

For B10, binding was characterised by a dissociation constant (Kd) of 34.1 ± 3.35 nM.

Consider B11, for which the dissociation constant Kd was determined as 64.5 ± 20 nM.

B12 gave a Kd of 37.5 ± 4 nM.

Consider B13, for which binding was characterised by a dissociation constant (Kd) of 90.5 ± 16 nM.

Molecule B14 yielded a Kd of 39 ± 6 nM.

In the case of B15, the Kd worked out at 42.5 ± 6 nM.

B16: binding was characterised by a dissociation constant (Kd) of 26.5 ± 2.7 nM.

The molecule B17 showed an equilibrium dissociation constant (Kd) of 19.3 ± 2.25 nM.

In turn, B18 registered a Kd of 61 ± 23 nM.

With B19, binding was put at a Kd of 81 ± 20 nM.

As for B20, the Kd came out at 74.5 ± 33.5 nM.

With B21, the dissociation constant (Kd) is 123 ± 29 nM.

Molecule B22 displayed a dissociation constant Kd of 85.5 ± 29.5 nM.

B23 had a dissociation constant (Kd) of 50.8 ± 4.85 nM.

B24 registered a Kd of 23.4 ± 3.5 nM.

Take B25: binding was characterised by a dissociation constant (Kd) of 110 ± 28 nM.

B26 showed a Kd of 23 ± 5 nM.

Regarding B27, the dissociation constant Kd was about 68.5 nM.
